What was measured:
[1] = biological target: human epidermal growth factor receptor (EGFR) on the surface of A431 cells (human, UniProt P00533 25-1210); assay: cell-based or functional assay
[2] = biological target: T1, full length EGFR protein from A431 cell lysate (affinity purified, or native in the lysate) (human, UniProt P00533 25-1210); assay: non-competitive ELISA on immobilized EGFR at 2 and 5 µg/ml coating
T1 construct: mature; 'mature' is chosen as the nearest form; also called intact EGFR protein; native EGFR
Method: The hyperbolic curves were plotted by Graphpad Prism (FIG. 7). […] The affinity was calculated as an association constant (Kaff) as follows: […]
The affinity of the Fab was calculated by non-competitive ELISA as described elsewhere (Raghava G P, et al. J Immunoassay 15:115-28 (1994)). The EGFR proteins were immobilized to an ELISA plate at two different concentrations: 2 μg/ml and 5 μg/ml. After the plate was blocked by 5% milk-PBS, the serially diluted Fab was added to each well. The concentration of Fab and the absorbance optical at 450 nm were plotted in two hyperbolic curves and each Kd was calculated by Graphpad Prism Demo Version.

B1: Fab-paclitaxel conjugate (anti-EGFR Fab conjugated to paclitaxel) (Fab, V domains shown)
VH: EVQLVESGGGLVQPGRSLRLSCAASGFTFDDYAMHWVRQAPGKGLEWVAVIWYDGSNKYYADSVKGRFTISRDNSKNTLYLQMNSLRAEDTAVYYCARTLYSNIDYWGQGTLVTVSS
VL: ALTQPPSVSVAPGKTARITCGGNNIGSKSVHWYQQKPGQAPVLVIYYDSDRPSGIPERFSGSNSGNTATLTISRVEAGDEADYYCQVWDSSSDHPVFGGGTKLTVL
modifications: paclitaxel conjugated to the Fab; chain, site and linker not stated
- IC50 of A431 cell proliferation [1]: 0.02 nM

B2: anti-EGFR Fab fragment (produced by E. coli deposited as ATCC PTA-7830) (Fab, V domains shown)
VH: B1 VH
VL: B1 VL
notes: Human Fab from a naive phage display library (phagemid pComb3X), expressed in E. coli Top 10 F' and purified from the periplasm; also called the Fab of the present invention
- Ka [2]: 3.25e+07 M⁻¹
- Kd [2]: 30.7 nM

— patent US20080131373A1 (VAN ANDEL RESEARCH INSTITUTE, published 2008)
